What was measured:
[1] = biological target: cyno FcRn (cynomolgus monkey) (UniProt Q8SPV9); assay: not stated
[2] = biological target: human FcRn (human) (UniProt P55899); assay: not stated
[3] = biological target: PF-07209960, anti-human PD-1–IL15 mutein fusion protein (human); assay: SPR; Biacore T200; fusion protein captured via anti-human Fc on a CM4 chip, receptor injected as analyte; 37°C; 10 mM HEPES, 150 mM NaCl, 0.05% Tween-20, pH 7.4, 1 mg/mL BSA; steady-state 1:1 Langmuir fit

Sequence of UniProt P55899 (P55899 whole entry, looked up, the tested form may be a part): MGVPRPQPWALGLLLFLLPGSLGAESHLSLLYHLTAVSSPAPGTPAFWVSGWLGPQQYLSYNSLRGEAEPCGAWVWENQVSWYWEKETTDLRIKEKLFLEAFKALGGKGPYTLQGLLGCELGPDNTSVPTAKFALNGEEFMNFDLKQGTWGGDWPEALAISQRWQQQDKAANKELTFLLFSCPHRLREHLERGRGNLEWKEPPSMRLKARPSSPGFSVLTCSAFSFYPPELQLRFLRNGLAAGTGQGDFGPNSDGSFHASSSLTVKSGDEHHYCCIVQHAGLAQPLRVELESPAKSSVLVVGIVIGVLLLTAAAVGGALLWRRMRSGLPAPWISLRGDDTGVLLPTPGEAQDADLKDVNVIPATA
Sequence of UniProt Q8SPV9 (Q8SPV9 whole entry, looked up, tested part not stated): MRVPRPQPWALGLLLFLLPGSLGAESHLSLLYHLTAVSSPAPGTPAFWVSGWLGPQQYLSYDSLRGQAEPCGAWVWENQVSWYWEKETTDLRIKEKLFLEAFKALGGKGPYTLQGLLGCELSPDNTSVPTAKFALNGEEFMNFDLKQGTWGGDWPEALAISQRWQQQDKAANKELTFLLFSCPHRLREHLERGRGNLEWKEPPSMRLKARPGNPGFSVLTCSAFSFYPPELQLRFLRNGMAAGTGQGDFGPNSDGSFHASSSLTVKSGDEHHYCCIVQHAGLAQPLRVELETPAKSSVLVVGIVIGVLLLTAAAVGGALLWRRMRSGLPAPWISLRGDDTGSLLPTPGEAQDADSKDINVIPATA

| Substance | Kd [1] | Kd [2] | Kd [3] |
| --- | --- | --- | --- |
| PF-07209960, anti-human PD-1–IL15 mutein fusion protein | 426 nM | 1040 nM | – |
| human IL-2Rβ (from UniProt P14784 27-551) (receptor) | – | – | 4000 nM |
| monkey IL-2Rβ (from UniProt Q38J85 27-551) (receptor) | – | – | 2400 nM |

Source: paper PMC10843171
